From patent US8889621B2, “Inhibiting binding of FGF23 to the binary FGFR-Klotho complex for the treatment of hypophosphatemia” (New York University, priority 2009, dated 2014)

Molecular target: T1, FGFR1c-Klotho complex (UniProt O35082+P11362)
T1 construct: The ectodomain of murine Klotho (A35 to K982) was purified from culture media; FLAG (C); made in house; host or cells: E. coli (FGFR1c); HEK293 conditioned media (Klotho ectodomain)
T1 sequence (P11362 142-365): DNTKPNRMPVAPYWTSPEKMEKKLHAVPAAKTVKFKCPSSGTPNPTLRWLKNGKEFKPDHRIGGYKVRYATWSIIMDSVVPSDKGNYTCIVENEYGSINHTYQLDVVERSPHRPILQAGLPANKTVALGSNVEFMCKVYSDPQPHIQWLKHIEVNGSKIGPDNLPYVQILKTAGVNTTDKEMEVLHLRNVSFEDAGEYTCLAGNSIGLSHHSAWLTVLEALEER
T1 sequence (O35082 35-982): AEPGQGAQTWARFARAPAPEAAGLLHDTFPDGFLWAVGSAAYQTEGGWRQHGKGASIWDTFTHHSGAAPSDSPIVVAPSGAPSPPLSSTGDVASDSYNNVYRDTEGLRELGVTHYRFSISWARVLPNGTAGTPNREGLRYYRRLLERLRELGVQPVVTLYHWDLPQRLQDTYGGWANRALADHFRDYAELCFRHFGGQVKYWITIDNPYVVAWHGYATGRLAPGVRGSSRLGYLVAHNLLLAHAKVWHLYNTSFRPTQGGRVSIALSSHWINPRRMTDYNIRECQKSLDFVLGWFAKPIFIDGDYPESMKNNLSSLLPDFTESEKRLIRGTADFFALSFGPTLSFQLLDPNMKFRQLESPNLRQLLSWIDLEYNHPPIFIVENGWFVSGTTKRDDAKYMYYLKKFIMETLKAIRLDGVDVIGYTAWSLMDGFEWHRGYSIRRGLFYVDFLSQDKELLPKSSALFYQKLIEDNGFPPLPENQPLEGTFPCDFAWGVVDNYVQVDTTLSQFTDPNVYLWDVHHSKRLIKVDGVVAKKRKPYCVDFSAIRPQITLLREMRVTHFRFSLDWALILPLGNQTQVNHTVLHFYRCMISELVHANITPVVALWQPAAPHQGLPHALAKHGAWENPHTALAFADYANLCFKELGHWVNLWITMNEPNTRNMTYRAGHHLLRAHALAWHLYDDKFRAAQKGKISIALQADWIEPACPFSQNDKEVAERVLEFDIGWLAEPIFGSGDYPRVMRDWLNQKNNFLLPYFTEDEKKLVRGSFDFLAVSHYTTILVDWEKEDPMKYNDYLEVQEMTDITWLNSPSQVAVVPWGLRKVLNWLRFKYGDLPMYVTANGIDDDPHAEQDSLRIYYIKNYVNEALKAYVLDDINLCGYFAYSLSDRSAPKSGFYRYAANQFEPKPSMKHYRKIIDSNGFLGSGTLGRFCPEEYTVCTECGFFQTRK
Assay: Size-exclusion chromatography of ternary complex formation
Type: binding, human FGFR1c, murine Klotho
Details: 1.0 M NaCl, pH7.5
Procedure: Size-exclusion chromatography may also be used to determine that an agent specifically binds the binary FGFR-Klotho complex. One aspect of the present invention utilizes size-exclusion chromatography. The size-exclusion chromatography experiments were performed on a HiLoad™ 16/60 Superdex™ 200 prep grade column. Because of poor solubility of FGF23 proteins and FGFR1c ectodomain in low salt buffer, the experiments were carried out with 25 mM HEPES-NaOH buffer, pH7.5, containing 1.0 M NaCl. Sample injection volume was 0.3 to 1.0 ml, and the flow rate was 1.0 ml min^−1. Protein retention times were determined by absorbance at 280 nm. The column was calibrated with ferritin (440 kDa), immunoglobulin G (150 kDa), albumin (69.3 kDa), ovalbumin (44.3 kDa), and carbonic anhydrase (28.8 kDa). The void volume was determined using blue dextran 2,000. […]
Size-exclusion chromatography experiments were performed on a HiLoad™ 16/60 Superdex™ 200 prep grade column (GE Healthcare) mounted on an ÄKTApurifier (GE Healthcare). […] Protein retention times were determined by absorbance at 280 nm. […] The void volume was determined using blue dextran 2,000. […]

B1: FGF23^28-251: human FGF23 (A28 to I251), bioactive full-length ligand expressed in E. coli (protein, listed as Homo sapiens)
chain: ASPLLGSSWGGLIHLYTATARNSYHLQIHKNGHVDGAPHQTIYSALMIRSEDAGFVVITGVMSRRYLCMDFRGNIFGSHYFDPENCRFQHQTLENGYDVYHSPQYHFLVSLGRAKRAFLPGMNPPPYSQFLSRRNEIPLIHFNTPIPRRHTRSAEDDSERDPLNVLKPRARMTPAPASCSQELPSAEDNSPMASDPLGVVRGGRVNTHAGGTGPEGCRPFAKFI
Q: Which “co-elution with the FGFR1c-Klotho complex” value does the source give for B1 here?
A: co-eluted with the FGFR1c-Klotho complex
